Source: PMC8516343

Experiments:
[1] = target: βTrCP1 (UniProt Q9Y297); test: co-immunoprecipitation; conditions: reference: ATF4 wild type; sites S219
[2] = target: βTrCP1 (UniProt Q9Y297); test: anti-Myc co-IP, anti-Flag blot; conditions: reference: Myc-ATF4-WT with Flag-CK1δ; sites S219

| binding against the reference [1] | binding against the reference [2] | Substance |
| --- | --- | --- |
| lost |  | ATF4 (from UniProt P18848) ATF4-S219A |
|  | weaker | ATF4 (from UniProt P18848) Myc-ATF4-S219A with Flag-CK1δ |
